Experimental data taken from patent publication US20210061908A1 (IOMX THERAPEUTICS, published 2021).
Values belong to the binder of their own block, whether it stands above or below them.

B1: human IGSF11 (VSIG3) expressed on the surface of cells (receptor)
chain: LEVSESPGSIQVARGQPAVLPCTFTTSAALINLNVIWMVTPLSNANQPEQVILYQGGQMFDGAPRFHGRVGFTGTMPATNVSIFINNTQLSDTGTYQCLVNNLPDIGGRNIGVTGLTVLVPPSAPHCQIQGSQDIGSDVILLCSSEEGIPRPTYLWEKLDNTLKLPPTATQDQVQGTVTIRNISALSSGLYQCVASNAIGTSTCLLDLQVISPQPRNIGLIAGAIGTGAVIIIFCIALILGAFFYWRSKNKEEEEEEIPNEIREDDLPPKCSSAKAFHTEISSSDNNTLTSSNAYNSRYWSNNPKVHRNTESVSHFSDLGQSFSFHSGNANIPSIYANGTHLVPGQHKTLVVTANRGSSPQVMSRSNGSVSRKPRPPHTHSYTISHATLERIGAVPVMVPAQSRAGSLV
notes: one molecule for all cell lines; the cell line is named under assay; also called IGSF11-expressing cells; HEK-OE

Legend:
[1] = target: T1, A-015 (scFv-Fc format, mouse IgG2A Fc); test: FACS on CD14-gated monocytes from PBMC of healthy donor A, 30 min at 4 C, fluorescently labelled secondary antibody
T1 construct: scFv genetically fused to mouse IgG2A Fc, expressed in HEK293; also called scFv-Fc-format of antibody A-015; anti-IGSF11 scFv-Fc (mouse IgG2A)

[2] = target: T2, IGSF11 (VSIG3), construct used in SPR and BLI not stated (UniProt Q5DX21 23-241, limits assumed); test: SPR (Biacore), chain-swapped IgG1; IGSF11 construct not stated
T2 sequence (looked up): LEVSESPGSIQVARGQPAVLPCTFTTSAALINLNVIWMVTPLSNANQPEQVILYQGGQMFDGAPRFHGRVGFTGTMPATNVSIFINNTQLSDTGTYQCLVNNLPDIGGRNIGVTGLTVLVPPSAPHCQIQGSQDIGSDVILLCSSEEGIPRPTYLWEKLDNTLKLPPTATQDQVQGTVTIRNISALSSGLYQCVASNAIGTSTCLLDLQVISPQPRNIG

[3] = target: T3, extracellular domain (ECD) of human IGSF11 (VSIG3), HIS-tagged (human, UniProt Q5DX21 23-241, biotinylated in the ELISA of Example 4 (site not stated)); test: blocking ELISA (Example 5): IgG titrated and pre-incubated with 200 nM his-tagged IGSF11 ECD, complexes added to immobilised VSIR-Fc, bound IGSF11 detected with anti-hexahistidine-HRP; blocked ligand: VSIR-Fc [B]
T3 construct: also called HIS-IGSF11; IGSF11-HIS; not shown: HIS6 tag
T3 sequence: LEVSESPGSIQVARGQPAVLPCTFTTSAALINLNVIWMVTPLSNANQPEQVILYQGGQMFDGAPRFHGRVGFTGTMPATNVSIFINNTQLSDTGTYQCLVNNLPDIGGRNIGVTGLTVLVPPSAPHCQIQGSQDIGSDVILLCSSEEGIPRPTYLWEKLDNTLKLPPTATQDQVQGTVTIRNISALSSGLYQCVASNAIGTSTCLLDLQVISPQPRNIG

[4] = target: CL-11 (C); test: FACS on CL-11 cells (do not express IGSF11; negative cell line) treated with IGSF11 siRNA (KD)
[5] = target: CL-11 (C); test: FACS on CL-11 cells (do not express IGSF11; negative cell line) treated with scrambled control siRNA (SC)
[6] = target: B1; test: FACS, IgG1 format, recombinant HEK cells expressing IGSF11 (HEK-OE)
[7] = target: B1; test: FACS on DMS 273 cells treated with IGSF11 siRNA (KD: target knocked down, specificity control)
[8] = target: B1; test: FACS on DMS 273 cells treated with scrambled control siRNA (SC)
[9] = target: B1; test: FACS, IgG1 format, DMS 273 cells
[10] = target: B1; test: FACS on M579-A2-luc cells treated with scrambled control siRNA (SC)
[11] = target: T3, extracellular domain (ECD) of human …; test: ELISA: IGSF11-HIS coated, IgG1 antibody titrated, anti-human antibody-HRP and TMB; X-axis nM and Y-axis absorbance per legend paragraph 30 [B]
[12] = target: B1; test: FACS on M579-A2-luc cells treated with IGSF11 siRNA (KD: target knocked down, specificity control)
[13] = target: T3, extracellular domain (ECD) of human …; test: blocking ELISA (Example 5): IgG titrated and pre-incubated with 200 nM his-tagged IGSF11 ECD, complexes added to immobilised VSIR-Fc, bound IGSF11 detected with anti-hexahistidine-HRP; blocked ligand: VSIR-Fc
[14] = target: T3, extracellular domain (ECD) of human …; test: ELISA: IGSF11-HIS coated, IgG1 antibody titrated, anti-human antibody-HRP and TMB; X-axis nM and Y-axis absorbance per legend paragraph 30
[15] = target: T3, extracellular domain (ECD) of human …; test: blocking ELISA (Example 5): IgG titrated and pre-incubated with 200 nM his-tagged IGSF11 ECD, complexes added to immobilised VSIR-Fc, bound IGSF11 detected with anti-hexahistidine-HRP; blocked ligand: VSIR-Fc; remark: listed apart in the source

T1 sequence (VH, as listed by the source, chain 1 of 2): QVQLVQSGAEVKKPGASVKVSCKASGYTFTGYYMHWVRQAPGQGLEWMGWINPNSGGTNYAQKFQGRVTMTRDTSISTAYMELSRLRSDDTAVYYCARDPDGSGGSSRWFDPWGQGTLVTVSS
T1 sequence (VL, as listed by the source, chain 2 of 2): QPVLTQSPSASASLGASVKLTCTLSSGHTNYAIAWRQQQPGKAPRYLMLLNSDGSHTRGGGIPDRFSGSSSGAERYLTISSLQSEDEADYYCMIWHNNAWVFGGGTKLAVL

Binder: B1
binding result [1]: binds

B2: B-002 (chain-swapped, human IgG1 format) (antibody, V domains shown)
VH: EVQLVESGGGLIQPGGSLRLSCAASGFTVSSNYMSWVRQAPGKGLEWVSVIYSGGSTYYADSVKGRFTISRDNSKNTLYLQMNSLRAEDTAVYYCARGNPYYYGDLQVNFDYWGQGTLVTVSS
VL: QAVVTQEPSLTVSPGGTVTLTCASSTGAVTSGYYPNWFQQKPGQAPRALIYSTSNKHSWTPARFSGSLLGGKAALTLSGVQPEDEAEYYCLLYYGGAWVFGGGTKLTVL
notes: VH of A-006 with VL of A-012; IgG1 format; also called B2; Chains-B-002
Kd [2]: 100 to 250 nM
IC50 (read off the curve) [3]: ~4 nM
percentage binding [4]: 4.54%
percentage binding [5]: 3%
EC50 [6]: 10 to 50 nM
percentage binding [7]: 8.68%
percentage binding [8]: 80.1%
EC50 [9]: > 50 nM
percentage binding [10]: 70.7%
EC50 (read off the curve) [11]: ~0.01 nM
percentage binding [12]: 2.77%

B3: B-001 (chain-swapped, human IgG1 format) (antibody, V domains shown)
VH: EVQLLESGGGLIQPGGSLRLSCAVSGFTVSSNYMSWVRQAPGKGLEWVSVIYSGGSTYYADSVKGRFTISRDNSKNTLYLQMNSLRAEDTAVYYCARGNPYYYGDLQVNFDYWGQGTLVTVSS
VL: QAVVTQEPSLTVSPGGTVTLTCASSTGAVTSAYYPNWFQQKPGQAPRALIYSTSNKHSWTPARFSGSLLGGKAALTLSGVQPEDEADYYCLLYYGGAWVFGGGTKLTVL
notes: VH of A-012 with VL of A-013; IgG1 format; also called B1; Chains-B-001
Kd [2]: 250 to 500 nM
EC50 [6]: 10 to 50 nM
IC50 (read off the curve) [13]: ~2 nM

Next, values leading:

IC50 (read off the curve) [3]: ~5 nM
EC50 (read off the curve) [11]: ~0.02 nM
B4: B-004 (chain-swapped, human IgG1 format) (antibody, V domains shown)
VH: EVQLLESGGGLIQPGGSLRLSCAVSGFTVSSNYMSWVRQAPGKGLEWVSVIYSGGSTYYADSVKGRFTISRDNSKNTLYLQMNSLRAEDTAVYYCARGNPYYYGDLQVNFDYWGQGTLVTVSS
VL: QAVVTQEPSLTVSPGGTVTLTCASSTGAVTSGYYPNWFQQKPGQAPRPLIYSTSNKHSWTPARFSGSLLGGKAALTLSGVQPDDEAEYYCLLYYGGDWVFGGGTKLTVL
notes: VH of A-012 with VL of A-006; IgG1 format; also called B4; Chains-B-004

EC50 (read off the curve) [14]: ~0.02 nM
IC50 (read off the curve) [15]: ~5 nM
B5: B-006 (chain-swapped, human IgG1 format) (antibody, V domains shown)
VH: EVQLVESGGGLIQPGGSLRLSCAASGFTVSSNYMSWVRQAPGKGLEWVSVIYSGGSTYYADSVKGRFTISRDNSKNTLYLQMNSLRAEDTAVYYCARGNPYYYGDLQVNFDYWGQGTLVTVSS
VL: QAVVTQEPSLTVSPGETVTLTCASSTGAVTSGYYPNWFQQRPGQAPRALIYSTSNKDSWTPARFSGSLLGGKAALTLSGVQPEDEAEYYCLLYYGGAWVFGGGTKLTVL
notes: VH of A-006 with VL of A-005; IgG1 format; also called B6; Chains-B-006
